Laboratory results reported in patent EP4803548A1 (Beijing Wisdomab Biotechnology Co., Ltd, dated 2026).
Where two headings read alike, the source gives them in different places.

Tests used:
[1] = molecular target: T1, HLA-A02 complex presenting … (MIP-H1-01), disulfide trap single-chain trimer
[2] = molecular target: T1, HLA-A02 complex presenting … …; remark: listed apart in the source
[3] = molecular target: T2, HLA-A02/HBsAg348-357 (…) complex on the cell surface (human; human (Homo sapiens) as printed …); experiment: cell-based or functional assay
[4] = molecular target: T1, HLA-A02 complex presenting … …; experiment: SPR Biacore T200; method of Section 3.1
CD3D-CD3E-mFc = molecular target: T3, CD3D-CD3E-mFc (human; mouse); experiment: SPR Biacore T200; method of Section 3.1, CD3D-CD3E-mFc as antigen
T3 construct: also called antigen CD3D-CD3E-mFc
T3 chain 1: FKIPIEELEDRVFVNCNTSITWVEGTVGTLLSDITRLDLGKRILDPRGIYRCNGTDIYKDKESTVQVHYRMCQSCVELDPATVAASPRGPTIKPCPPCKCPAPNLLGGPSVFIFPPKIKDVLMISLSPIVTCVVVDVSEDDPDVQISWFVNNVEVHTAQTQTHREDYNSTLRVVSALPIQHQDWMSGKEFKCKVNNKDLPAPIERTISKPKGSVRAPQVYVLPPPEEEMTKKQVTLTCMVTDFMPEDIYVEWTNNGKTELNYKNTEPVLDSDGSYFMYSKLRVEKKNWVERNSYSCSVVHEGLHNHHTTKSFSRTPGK
T3 chain 2: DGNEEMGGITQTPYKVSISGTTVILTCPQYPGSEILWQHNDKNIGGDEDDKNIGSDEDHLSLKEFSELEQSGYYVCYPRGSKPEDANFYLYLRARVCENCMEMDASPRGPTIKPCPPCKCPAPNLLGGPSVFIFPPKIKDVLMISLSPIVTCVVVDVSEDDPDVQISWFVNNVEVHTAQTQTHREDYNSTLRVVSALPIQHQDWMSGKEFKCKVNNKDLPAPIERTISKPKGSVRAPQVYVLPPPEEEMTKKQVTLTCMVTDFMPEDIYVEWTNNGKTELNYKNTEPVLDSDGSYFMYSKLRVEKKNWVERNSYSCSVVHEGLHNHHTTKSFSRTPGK

[5] = molecular target: T2, HLA-A02/HBsAg348-357 (…) complex on the …; experiment: cell-based or functional assay; remark: listed apart in the source
[6] = molecular target: T2, HLA-A02/HBsAg348-357 (…) complex on the …; experiment: cell-based or functional assay; remark: listed apart in the source
[7] = molecular target: T2, HLA-A02/HBsAg348-357 (…) complex on the …; experiment: cell-based or functional assay; remark: listed apart in the source

B1: N1B5-h4-Fc recombinant protein (humanized anti-HLA-A02/HBsAg complex TCRm antibody N1B5-h4) (Fc fusion)
chain: EVQLVESGGGLVQPGGSLRLSCAASDDTYMTNCMGWFRQAPGKERVGVAAIYTGGGRAVYADSVRGRFTISQDNAKNTVYLQMNSLKPEDTAMYYCAADWLGPDMTDIQVLGALPWFNYWGQGTLVTVSS
**Q.** Which Kd [1] does the source give for B1 here?
**A.** Its Kd is 0.191 nM.

**Q.** What about the koff [1] of the same binder?
**A.** Its koff is 0.000125 s⁻¹.

**Q.** What about the kon [1] of the same binder?
**A.** Its kon is 656000 M⁻¹ s⁻¹.

B2: N1B5-Fc recombinant protein (anti-HLA-A02/HBsAg complex TCRm antibody N1B5) (Fc fusion, not shown: a dimerising Fc or GST)
chain: QVQLVESGGGSVQAGGSLRLSCAASDDTYMTNCMGWFRQAPGKEREGVAAIYTGGGRAVYADSVRGRFTISQDNAKNTVYLQMNSLKPEDTAMYYCAADWLGPDMTDIQVLGALPWFNYWGQGTLVTVSS
**Q.** B2 was tested. Which Kd [2] did it give?
**A.** Its Kd is 0.14 nM.

**Q.** And the koff [2]?
**A.** Its koff is 9.7e-05 s⁻¹.

**Q.** What about the kon [2] of the same binder?
**A.** Its kon is 692000 M⁻¹ s⁻¹.

B3: TCRm×CD3 bispecific antibody 2N1B5+IMCR (bispecific antibody)
chain 1: QVQLVESGGGSVQAGGSLRLSCAASDDTYMTNCMGWFRQAPGKEREGVAAIYTGGGRAVYADSVRGRFTISQDNAKNTVYLQMNSLKPEDTAMYYCAADWLGPDMTDIQVLGALPWFNYWGQGTLVTVSSGGGGSGGGGSGGGGSQVQLVESGGGSVQAGGSLRLSCAASDDTYMTNCMGWFRQAPGKEREGVAAIYTGGGRAVYADSVRGRFTISQDNAKNTVYLQMNSLKPEDTAMYYCAADWLGPDMTDIQVLGALPWFNYWGQGTLVTVSSASERKSSVECPPCPAPEFEGGPSVFLFPPKPKDTLMISRTPEVTCVVVDVSQEDPEVQFNWYVDGVEVHNAKTKPREEQYNSTYRVVSVLTVLHQDWLNGKEYKCKVSNKALPASIEKTISKAKGQPREPQVCTLPPSQEEMTKNQVSLSCAVKGFYPSDIAVEWESNGQPENNYKTTPPVLDSDGSFFLVSKLTVDKSRWQEGNVFSCSVMHEALHNHYTQKSLSLSPGK
chain 2: not shown
**Q.** What does the source list for B3?
**A.** EC50 of killing of antigen peptide-pulsed T2 cells by PBMCs (LDH release) [3]: 0.278 pM; Kd [4]: 0.237 nM; koff [4]: 0.000145 s⁻¹; kon [4]: 613000 M⁻¹ s⁻¹; Kd (CD3D-CD3E-mFc): 2.96 nM; koff (CD3D-CD3E-mFc): 0.000175 s⁻¹; kon (CD3D-CD3E-mFc): 59200 M⁻¹ s⁻¹; EC50 of activation of Jurkat-Dual cells by targeting HLA-A02+/HBsAg+ tumor cells HepG2-HBsAg (QUANTI-Luc) [5]: 0.389 nM; EC50 of killing of HepG2-HBsAg cells by PBMCs (LDH release) [6]: 8.83 pM; EC50 of activation of Jurkat-Dual cells by targeting antigen peptide-pulsed T2 cells (QUANTI-Luc) [7]: 2.41 pM

B4: TCRm×CD3 bispecific antibody 2N1B5-h4+IMCR (bispecific antibody)
chain 1: EVQLVESGGGLVQPGGSLRLSCAASDDTYMTNCMGWFRQAPGKERVGVAAIYTGGGRAVYADSVRGRFTISQDNAKNTVYLQMNSLKPEDTAMYYCAADWLGPDMTDIQVLGALPWFNYWGQGTLVTVSSGGGGSGGGGSGGGGSEVQLVESGGGLVQPGGSLRLSCAASDDTYMTNCMGWFRQAPGKERVGVAAIYTGGGRAVYADSVRGRFTISQDNAKNTVYLQMNSLKPEDTAMYYCAADWLGPDMTDIQVLGALPWFNYWGQGTLVTVSSASERKSSVECPPCPAPEFEGGPSVFLFPPKPKDTLMISRTPEVTCVVVDVSQEDPEVQFNWYVDGVEVHNAKTKPREEQYNSTYRVVSVLTVLHQDWLNGKEYKCKVSNKALPASIEKTISKAKGQPREPQVCTLPPSQEEMTKNQVSLSCAVKGFYPSDIAVEWESNGQPENNYKTTPPVLDSDGSFFLVSKLTVDKSRWQEGNVFSCSVMHEALHNHYTQKSLSLSPGK
chain 2: not shown
**Q.** For B4, which “EC50 of killing of antigen peptide-pulsed T2 cells by PBMCs (LDH release)” value [3] is on record?
**A.** Its value is 0.209 pM.

**Q.** What about the Kd [4] of the same binder?
**A.** The Kd was 0.531 nM.

**Q.** And the koff [4]?
**A.** The koff was 0.00014 s⁻¹.

**Q.** And the kon [4]?
**A.** Its kon is 263000 M⁻¹ s⁻¹.

**Q.** What about the Kd (CD3D-CD3E-mFc) of the same binder?
**A.** The Kd was 2.04 nM.

**Q.** And the koff (CD3D-CD3E-mFc)?
**A.** The koff was 0.000132 s⁻¹.

**Q.** What about the kon (CD3D-CD3E-mFc) of the same binder?
**A.** Its kon is 64700 M⁻¹ s⁻¹.

**Q.** What about the “EC50 of killing of HepG2-HBsAg cells by PBMCs (LDH release)” value [6] of the same binder?
**A.** The value was 9.52 pM.
